The data set in a line: soluble on expression in E. coli; label from the status in PepcDB or PDB records.
As for “MSLDAVRAVLIDIDGVLTVSWKPLPGAIEALHRIRDASLGVVLLTNTTSRTRASIAATLGASGFPVSAEDILTAPTATAAHLTDHCPGARCSLLNSGDIREDLVGVTLLDDTDTVPDVVIVGGAGPEFDYAALNRVFGHLQRGARLVAMHRNLYWRTDRGLDLDSGAFLLGLEHAAGTRAEITGKPAPAFFEAALTRLGAGPGQAVMVGDDIESDVLAAQRTGITGVLVKTGKYLPETHHAASARPDHVLDSVADLPALLDSVVREGHHHHHH”, the “soluble on expression in E. coli” value is “soluble”.

In the case of “MTEKDYGQVTGMVHSTESFGSVDGPGIRFIIFLQGCKLRCQYCHNPDTWEMETNNSKIRTVNDVLKEALQYKHFWGKKGGITVSGGEAMLQIDFITALFIEAKKLGIHTTLDTCGFTYRPTPEYHQVLDNLLAVTDLILLDLKEIDEKQHKIVTRQPNKNILQFARYLSDKQIPVWIRHVLVPGLTD”, the “soluble on expression in E. coli” value is “not soluble”.

Take “MGSDKIHHHHHHMQWFENPLFSERVEFLESSQYWPAERHAVYQLRSLRRLVHHVAAHVPFYRDFMAASGIRPEDILSIEDIKRFPIIDKKVIQAQPEAFLADGSDRATLLHRTTGGSTGTPLTVWFDGDLLARDKANTEHYMRAIGLDIFTWKSIRLYGDKIDPEITDTGRYWKLVDGRRLVMSCYHITHETAPAYVAELNRFRPRYIHTRPSSILPLAKYILQDGLALDPIRTIVSDGEYLTDGQRAVIERAFQGRLYNIYGHTEACVVGHPCHHSDGLHLMPQVGVTELLDEQGRDVTEPGGRGELVVTGFNNPVMPLIRYRTGDVAYLGEGGCRCGRHYQMLKGIEGRLQDYVIDAAGNPTPLAPAVFNYNDMDWKGIKEFKVIQDTPGELTILIVLEAELAADPAGSKAVLEQRIGAILAGFRISITLVDDIPKTKIGKHRYLDQRLDVKELVSFR”: the “soluble on expression in E. coli” value was “not soluble”.

On to “MSNVPAELKYSKEHEWLRKEADGTYTVGITEHAQELLGDMVFVDLPEVGATVSAGDDCAVAESVKAASDIYAPVSGEIVAVNDALSDSPELVNSEPYTGGWIFKIKASDESELESLLDATAYEALLEDE”, for which the “soluble on expression in E. coli” value was “not soluble”.

Regarding “MSLDYQGYLIDLDGTIYLGKEPIPAGKRFVERLQEKDLPFLFVTNNTTKSPETVAQRLANEFDIHVPASLVYTATLATIDYMKEANRGKKVFVIGEAGLIDLILEAGFEWDETNPDYVVVGLDTELSYEKVVLATLAIQKGALFIGTNPDKNIPTERGLLPGAGSVVTFVETATQTKPVYIGKPKAIIMERAIAHLGVEKEQVIMVGDNYETDIQSGIQNGIDSLLVTSGFTPKSAVPTLPTPPTYVVDSLDEWTFEGHHHHHH”, the “soluble on expression in E. coli” value is listed as “soluble”.

“AEQKTLHIYNWSDYIAPDTVANFEKETGIKVVYDVFDSNEVLEGKLMAGSTGFDLVVPSASFLERQLTAGVFQPLDKSKLPEWKNLDPELLKLVAKHDPDNKFAMPYMWATTGIGYNVDKVKAVLGENAPVDSWDLILKPENLEKLKSCGVSFLDAPEEVFATVLNYLGKDPNSTKADDYTGPATDLLLKLRPNIRYFHSSQYINDLANGDICVAIGWAGDVWQASNRAKEAKNGVNVSFSIPKEGAMAFFDVFAMPADAKNKDEAYQFLNYLLRPDVVAHISDHVFYANANKAATPLVSAEVRENPGIYPPADVRAKLFTLKVQDPKIDRVRTRAWTKVKSGK”: the “soluble on expression in E. coli” value is recorded as “soluble”.

Take “MGSDKIHHHHHHMAAGSTLWTRIPAMQQQNHPPYTLAIAQGESISLDPSHFTPEHWQALAAVTGTSKGRYTTWFVRHPEANQDWVLRHYWRGGLMEKFSKDRYLYTGMANTRAIAELALLEKLHAEGFPVPRPVGARVRRYALWYSADILIERMPGCRDLLAWLEQGPLDEAEWKALGVCIARFHHRGVYHADLNAKNILKGPQGFALIDFDRGEIRNPANSWQQANLSRLRRSFDKEKGKLPSLAFDESCWQWLLEGYAAA”: the “soluble on expression in E. coli” value was “not soluble”.

“AGQFGTDYNAAIKVDTQTEFCGYVGTKGSSSVAAMFVEGNEVDSLSAGDKAIIVLGETPFYAESGGQCGDAGEIRTEAGVFRVEDTQKLGNAIAHHGVMAEGVLAKGDEVATIVDAERRAAISLN”: the “soluble on expression in E. coli” value is “not soluble”.

With “MLVVPAIDLFRGKVARMIKGRKENTIFYEKDPVELVEKLIEEGFTLIHVVDLSNAIENSGENLPVLEKLSEFAEHIQIGGGIRSLDYAEKLRKLGYRRQIVSSKVLEDPSFLKSLREIDVEPVFSLDTRGGRVAFKGWLAEEEIDPVSLLKRLKEYGLEEIVHTEIEKDGTLQEHDFSLTKKIAIEAEVKVLAAGGISSENSLKTAQKVHTETNGLLKGVIVGRAFLEGILTVEVMKRYAR”, the “soluble on expression in E. coli” value was “soluble”.

Take “MNTLPDTHVREASGCPSPITIWQTLLTRLLDQHYGLTLNDTPFADERVIEQHIEAGISLCDAVNFLVEKYALVRTDQPGFSAGAPSQLINSIDILRARRATGLMTRDNYRTVNNITRGKHPEAKQ”: the “soluble on expression in E. coli” value is recorded as “not soluble”.

Regarding “MAHHHHHHMLSSISPKRYSFDKQGNIKEIDFLSCKSVILPEQHLNAKDNFICTTSILPNFYETPPDKASKLKMTQENNIDKANMGTNVYVQRTSSLSNMNVLQYADEVHNNLQDSNVHEINEPLIFADVNQYCGDANTQGIDPGVVAVSNALFAYNSAFQSIPIKSSPNVFKRRSKGEANSEWSNAFVTRVDPYECTDPEEEFKPYEVTKYYDEGKVKTVFNFDQENYNQDM”, the “soluble on expression in E. coli” value is on record as “soluble”.

As to “MPSVKIGIIGAGSAVFSLRLVSDLCKTPGLSGSTVTLMDIDEERLDAILTIAKKYVEEVGADLKFEKTMNLDDVIIDADFVINTAMVGGHTYLEKVRQIGEKYGYYRGIDAQEFNMVSDYYTFSNYNQLKYFVDIARKIEKLSPKAWYLQAANPIFEGTTLVTRTVPIKAVGFCHGHYGVMEIVEKLGLEEEKVDWQVAGVNHGIWLNRFRYNGGNAYPLLDKWIEEKSKDWKPENPFNDQLSPAAIDMYRFYGVMPIGDTVRNSSWRYHRDLETKKKWYGEPWGGADSEIGWKWYQDTLGKVTEITKKVAKFIKENPSVRLSDLGSVLGKDLSEKQFVLEVEKILDPERKSGEQHIPFIDALLNDNKARFVVNIPNKGIIHGIDDDVVVEVPALVDKNGIHPEKIEPPLPDRVVKYYLRPRIMRMEMALEAFLTGDIRIIKELLYRDPRTKSDEQVEKVIEEILALPENEEMRKHYLKR”, the “soluble on expression in E. coli” value is “soluble”.

Take “MSLKIWITKNHKSKDDWSRSKKFIIIKITTHDGVEGWGEAFSIHLREKAIATIIIELFKEISKIKNLSINSLYNKISLLSDNHKGLDFSAATSAIEIAAWDIAGKLKNLPLNCLLTDNPKPDVSIYVTCWSDLRKDEEDYLDQVEKYFEKKYGGIKIYPLFENTSNSIKFVDRVRKIVGMEYPLMLDLAIPKDLDQTKTFLKEVSFLKPYWIEEPVDGENISLLTEIKNSFDMKVVTGEKQSGLPHFKEIIKRDAADILNPDISGIGGIIDMLYVSKEALNNDISISPHCWNSMSVSASAMLHVCSSIPNSEKAEIFPDYIEFTKEFCELPFNIVEDKAILNQSAGLGIVIHEDTLSNLSTYRMDEKNEGHHHHHH”: the “soluble on expression in E. coli” value is reported as “soluble”.

“GNIAKPIRILGNGMDRVANGELETRISQQVDDRDDELSHLAIQFDKMVEKLEKLVAKERHLLHHVSHEMRSPLARMQAIVGLIQAQPQKQEQYLKRLEGELTRMDTLAGELLTLSRLETSNMALEKESLKLLPFLGNLVEDNQSIAQKNGQTVTLSADGKIPENTTILANESYLY”: the “soluble on expression in E. coli” value is reported as “not soluble”.

Turning to “GPGSMLYDEEECIKVIVVGDGNVGKTCMLRRFVRGDFVEQYRKTIGAEFMEKDVFLRSSKTMVKLMLWDTAGQEVFNALTQAYYRGAGAAILTFSTVDRDSLMSIAGWKQRVESVCGCITMVLCQTKFDLSHEAVITHAEAEGLASQLEVPLFRVSAKDDFNVRQLFEFTAQQCVENSAQDEAPVDDMP”, the “soluble on expression in E. coli” value was “not soluble”.

As to “MSLQTSDQYSIQEVVDAGHGFFGETTGGLAKVVERAFQQYGLPNGYILGQEGSGAFVAGLTYGEGTLYTKNAGQHPVFWQGPSLGLDYGGQGTRAMMLVYNLPSVDALYRRYGGVSGSAFIVAGVGMTYLKSSDVTLAPIRTGIGARLGINVGYLKLTQQPTWNPFEGHHHHHH”, the “soluble on expression in E. coli” value was “soluble”.

“QVEVIVMMHGRSTATSMVETVQELLSIESGIALDMPLTVEVKAMYEKLKQTVVKLNPVKGVLILSDMGSLTSFGNILTEELGIRTKTVTMVSTPVVLEAMRKASLGRGLEDIYQSCEQLFENKYKAHVLRAKP”: the “soluble on expression in E. coli” value was “not soluble”.

As to “GPGSMMELPMEMNVDGVPMVLSKVSYSPMLDFGGTFSYRRYCFVGELQPEGYVNWFFAPLEGYKDKRLRVHESAVKEGALNHLVFMRLGELSFRQYKLKHIPSPTEQPHSPVTPQGDSTKQLMGHAHPHFNYIFEAMRQDQASSPSPRSSSIGSDCTYHSSKESCESLQMSSSLVDLPGKRLSNASLRSGVRPPLEARRGAVCDDEGFLPPVRSLKKSSERSQEL”, the “soluble on expression in E. coli” value is recorded as “not soluble”.

For the sequence “MEHKIVHVGDIPVANDKPFTLFAGMNVLESRDLAMQICEHYVKVTDKLGIPYVFKASFDKANRSSVHSYRGPGLEEGMKIFQELKETFGVKIITDVHTEAQAQPVADVVDVIQLPAFLARQTDLVEAMAKTGAVINVKKPQFMSPGQVGNIVEKFAECGNDKVILCERGSCHGYDNLVVDMLGFGVMKQASNGSPIIFDVTHSLQMRDPSGAASGGRREQTVELAKAGLATGIAGLFIEAHPNPDKARCDGPSALPLDKLEPFLAQMKALDDLIKSFAHIDIR”, the “soluble on expression in E. coli” value is reported as “not soluble”.

With “MQYRRQPCSGVVKFNDAITLIDAGLHDLADRWSPGSFQQFLLTHYHMDHVQGLFPLRWGVGDPIPVYGPPDEQGCDDLFKHPGLLDFSHTVEPFVVFDLQGLQVTPLPLNHSKLTFGYLLETAHSRVAWLSDTAGLPEKTLKFLRNNQPQVMVMDCSHPPRADAPRNHCDLNTVLALNQVIRSPRVILTHISHQFDAWLMENALPSGFEVGFDGMEIGVALEHHHHHH”, the “soluble on expression in E. coli” value was “not soluble”.

Consider “MSLYELTEDFKLRKITKYELDGIDEREDLLVIPPSSKAGPCGNACLFCYLLQNPPEMIYKVPRHDTLNDPDLENRIRYARKHYDLWIRVTDTSGNIKFDENRIKSLYDAGLDEIQISVHTTKKDVRARLMRNRQAGKLIDLLPLVAKHFRTIADIILTPGFNVEDIGEIIEDLDSMGVHEVRLFPVGVTRYNKFGVRPLTREELSYVKGIALEKDKELAIKVVIPPIFLALLGEFTTGLEPFDIEPDFPTYIFTGELAYQEMKRLFPRVNVIMVKNEFFGGNIGSAGLLTGRDILREVEKLPEVDLGLIILPELMFYGDMTLDGWRRQELFSKILIEKGYIVETALEPTEIPRVIEKVTLEGHHHHHH”, for which the “soluble on expression in E. coli” value is reported as “soluble”.

As to “GEPPTQKPKKIVNAKKDVVNTKMFEELKSRLDTLSQEVALLKEQQALQTVCLKGTKVHMKCFLAFTQTKTFHEASEDCISRGGTLSTPQTGSENDALYEYLRQSVGNEAEIWLGLNDMAAEGTWVDMTGARIAYKNWETEITAQPDGGKTENCAVLSGAANGKWFDKRCRDQLPYICQFGIV”, the “soluble on expression in E. coli” value is reported as “soluble”.

On to “VLDVDTARRRIVDLTDAVRAFCTAHDDGLCNVFVPHATAGVAIIETGAGSDEDLVDTLVRLLPRDDRYRHAHGSYGHGADHLLPAFVAPSVTVPVSGGQPLLGTWQSIVLVDLNQDNPRRSVRLSFVEG”, for which the “soluble on expression in E. coli” value was “not soluble”.

Consider “MSLKAFLHHLQNEAKLIISLTYCVDGEFALNEIARATLQQYGIVQLSSATNSDSETEAATSKAVKTAYDKAVEAKTTADGKVGLNGNESINGEKTFENRIVAKRNIRISDSPHYASRGDYLNIGANNGDCWFEYKLSNQEIGTLRMHANGDLTYKRQKIYLKMDCWQAIHKRKLKVFTAKRKKREGHHHHHH”, for which the “soluble on expression in E. coli” value is on record as “not soluble”.

(Values after the DeepSol protein solubility set.)
